Measurements as given in the supplement of paper PMC10065799, “High-throughput profiling of sequence recognition by tyrosine kinases and SH2 domains using bacterial peptide display” (eLife, 2023).

Assays:
Fer (mouse) = assay: phosphorylation enrichment, bacterial display (enrichment ratio); higher = better substrate or ligand; peptides without Tyr show the background
MERTK = MERTK (UniProt Q12866); assay: as above
c-Src = assay: as above
c-Abl (mouse) = assay: as above
AncSZ = assay: as above
Jak2 = Jak2 (UniProt O60674); assay: as above
Fyn = Fyn (UniProt P06241); assay: as above
FGFR1 = FGFR1 (UniProt P11362); assay: as above
FGFR3 = FGFR3 (UniProt P22607); assay: as above
Fes = Fes (UniProt P07332); assay: as above
EPHB1 = EPHB1 (UniProt P54762); assay: as above
EPHB2 = EPHB2 (UniProt P29323); assay: as above
Hck = Hck (UniProt P08631); assay: as above
c-Src SH2 = assay: SH2 binding enrichment of the phosphorylated peptide, bacterial display (enrichment ratio); higher = better substrate or ligand; peptides without Tyr show the background
SHP2-C SH2 = assay: as above
Grb2 SH2 = Grb2 SH2 (UniProt P62993); assay: as above
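Throughout, for SH2 binding enrichment of the phosphorylated peptide, bacterial display: peptide library displayed on the E. coli surface as eCPX fusions, selected cells deep-sequenced, score is each peptide's frequency after selection divided by its frequency in the input.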
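Throughout, for phosphorylation enrichment, bacterial display: 11-residue human phosphosite peptides and single-mutation variants displayed on the E. coli surface, counted by deep sequencing, each peptide's frequency after selection divided by its frequency in the unselected input library; frequency after pTyr selection over input frequency; kinase dosed for 20-30% of maximal phosphorylation in three min.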

FGFR3, sequence (P22607 whole entry, looked up): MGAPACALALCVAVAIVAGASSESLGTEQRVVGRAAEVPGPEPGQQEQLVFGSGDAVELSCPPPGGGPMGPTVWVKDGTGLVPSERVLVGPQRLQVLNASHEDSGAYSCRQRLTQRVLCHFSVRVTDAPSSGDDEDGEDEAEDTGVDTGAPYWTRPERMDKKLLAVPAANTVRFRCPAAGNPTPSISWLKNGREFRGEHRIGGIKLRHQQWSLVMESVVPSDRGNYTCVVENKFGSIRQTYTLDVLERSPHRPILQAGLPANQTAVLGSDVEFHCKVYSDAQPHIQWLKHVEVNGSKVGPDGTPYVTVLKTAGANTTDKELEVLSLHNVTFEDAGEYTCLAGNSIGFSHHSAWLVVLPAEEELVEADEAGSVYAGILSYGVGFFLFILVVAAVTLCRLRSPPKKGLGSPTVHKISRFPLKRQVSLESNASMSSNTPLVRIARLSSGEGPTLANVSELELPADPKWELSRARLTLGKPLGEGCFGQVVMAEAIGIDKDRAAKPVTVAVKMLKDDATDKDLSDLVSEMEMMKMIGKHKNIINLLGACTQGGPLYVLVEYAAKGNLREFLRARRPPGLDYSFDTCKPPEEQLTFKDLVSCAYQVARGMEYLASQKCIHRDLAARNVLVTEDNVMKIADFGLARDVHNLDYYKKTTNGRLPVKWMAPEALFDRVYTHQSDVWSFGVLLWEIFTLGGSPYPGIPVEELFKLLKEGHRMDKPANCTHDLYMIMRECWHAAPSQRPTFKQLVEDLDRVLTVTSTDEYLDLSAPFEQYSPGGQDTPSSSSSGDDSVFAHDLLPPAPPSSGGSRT
Fyn, sequence (P06241 whole entry, looked up): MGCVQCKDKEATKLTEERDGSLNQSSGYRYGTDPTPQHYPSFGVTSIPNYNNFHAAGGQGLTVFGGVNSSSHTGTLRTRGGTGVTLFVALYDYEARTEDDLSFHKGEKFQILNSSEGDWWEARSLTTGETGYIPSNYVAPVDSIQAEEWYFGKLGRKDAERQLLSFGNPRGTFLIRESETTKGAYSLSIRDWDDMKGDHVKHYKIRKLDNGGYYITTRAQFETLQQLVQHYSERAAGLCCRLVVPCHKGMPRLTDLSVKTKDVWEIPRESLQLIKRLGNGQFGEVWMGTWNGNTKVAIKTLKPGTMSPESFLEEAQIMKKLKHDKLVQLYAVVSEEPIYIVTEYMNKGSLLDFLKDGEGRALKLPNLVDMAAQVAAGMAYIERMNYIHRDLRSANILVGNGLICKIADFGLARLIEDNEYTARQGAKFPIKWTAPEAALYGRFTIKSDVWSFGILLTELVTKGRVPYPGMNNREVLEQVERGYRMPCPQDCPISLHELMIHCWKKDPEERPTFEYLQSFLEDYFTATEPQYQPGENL
EPHB2, sequence (P29323 whole entry, looked up): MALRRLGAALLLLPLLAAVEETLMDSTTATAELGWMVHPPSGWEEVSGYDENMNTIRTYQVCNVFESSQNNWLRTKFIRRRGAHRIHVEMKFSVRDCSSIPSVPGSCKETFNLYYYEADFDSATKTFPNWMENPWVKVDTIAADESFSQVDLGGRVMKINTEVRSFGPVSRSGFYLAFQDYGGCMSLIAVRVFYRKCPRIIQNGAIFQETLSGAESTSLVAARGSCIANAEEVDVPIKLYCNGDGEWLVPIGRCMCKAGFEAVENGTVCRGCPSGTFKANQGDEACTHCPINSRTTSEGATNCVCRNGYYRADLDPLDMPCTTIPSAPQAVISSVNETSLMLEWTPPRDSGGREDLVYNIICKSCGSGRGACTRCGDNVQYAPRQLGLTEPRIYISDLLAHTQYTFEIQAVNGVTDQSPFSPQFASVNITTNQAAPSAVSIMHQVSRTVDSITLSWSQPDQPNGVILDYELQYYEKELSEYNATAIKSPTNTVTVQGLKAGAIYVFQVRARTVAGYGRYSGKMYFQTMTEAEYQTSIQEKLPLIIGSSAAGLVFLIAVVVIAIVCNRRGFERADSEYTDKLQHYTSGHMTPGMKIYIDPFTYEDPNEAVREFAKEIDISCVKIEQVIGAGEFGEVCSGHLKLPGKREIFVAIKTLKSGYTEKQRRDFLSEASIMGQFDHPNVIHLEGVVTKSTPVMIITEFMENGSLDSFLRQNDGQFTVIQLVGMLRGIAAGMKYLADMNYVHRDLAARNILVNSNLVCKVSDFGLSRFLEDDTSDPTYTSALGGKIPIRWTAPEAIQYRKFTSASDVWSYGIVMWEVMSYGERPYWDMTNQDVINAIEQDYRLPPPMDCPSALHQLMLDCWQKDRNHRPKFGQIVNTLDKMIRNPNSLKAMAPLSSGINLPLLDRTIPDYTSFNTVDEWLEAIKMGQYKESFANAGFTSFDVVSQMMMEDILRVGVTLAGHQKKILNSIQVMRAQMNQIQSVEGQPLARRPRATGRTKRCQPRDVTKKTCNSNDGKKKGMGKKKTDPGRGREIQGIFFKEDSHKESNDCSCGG
Jak2, sequence (O60674 whole entry, looked up): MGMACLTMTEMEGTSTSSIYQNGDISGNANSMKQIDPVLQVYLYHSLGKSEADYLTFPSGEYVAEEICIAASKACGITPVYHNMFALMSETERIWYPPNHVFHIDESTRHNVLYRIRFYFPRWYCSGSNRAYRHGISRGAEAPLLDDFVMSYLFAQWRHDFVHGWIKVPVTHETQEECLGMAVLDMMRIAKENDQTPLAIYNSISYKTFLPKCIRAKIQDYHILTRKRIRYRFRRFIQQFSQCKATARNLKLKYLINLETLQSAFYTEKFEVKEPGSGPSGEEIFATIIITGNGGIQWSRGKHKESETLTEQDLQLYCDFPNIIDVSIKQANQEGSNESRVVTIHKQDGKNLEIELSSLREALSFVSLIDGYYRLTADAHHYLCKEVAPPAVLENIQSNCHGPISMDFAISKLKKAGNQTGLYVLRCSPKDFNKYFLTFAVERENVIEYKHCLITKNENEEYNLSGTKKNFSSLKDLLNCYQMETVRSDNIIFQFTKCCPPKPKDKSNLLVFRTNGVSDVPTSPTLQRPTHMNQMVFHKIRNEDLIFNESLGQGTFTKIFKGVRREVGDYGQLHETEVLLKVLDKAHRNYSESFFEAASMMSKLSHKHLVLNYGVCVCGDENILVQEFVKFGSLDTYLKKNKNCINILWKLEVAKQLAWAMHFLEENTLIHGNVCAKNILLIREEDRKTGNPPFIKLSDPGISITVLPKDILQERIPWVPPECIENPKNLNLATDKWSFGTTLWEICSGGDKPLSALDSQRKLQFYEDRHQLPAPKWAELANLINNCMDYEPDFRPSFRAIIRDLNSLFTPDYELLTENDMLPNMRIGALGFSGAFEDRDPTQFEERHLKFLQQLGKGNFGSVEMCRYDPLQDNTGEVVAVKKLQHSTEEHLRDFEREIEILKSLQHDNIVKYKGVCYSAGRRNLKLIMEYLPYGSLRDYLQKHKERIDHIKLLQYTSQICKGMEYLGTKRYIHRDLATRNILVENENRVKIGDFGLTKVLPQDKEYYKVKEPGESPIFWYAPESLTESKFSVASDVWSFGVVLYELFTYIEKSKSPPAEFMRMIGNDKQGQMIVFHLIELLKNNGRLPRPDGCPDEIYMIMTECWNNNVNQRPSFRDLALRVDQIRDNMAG
Fes, sequence (P07332 whole entry, looked up): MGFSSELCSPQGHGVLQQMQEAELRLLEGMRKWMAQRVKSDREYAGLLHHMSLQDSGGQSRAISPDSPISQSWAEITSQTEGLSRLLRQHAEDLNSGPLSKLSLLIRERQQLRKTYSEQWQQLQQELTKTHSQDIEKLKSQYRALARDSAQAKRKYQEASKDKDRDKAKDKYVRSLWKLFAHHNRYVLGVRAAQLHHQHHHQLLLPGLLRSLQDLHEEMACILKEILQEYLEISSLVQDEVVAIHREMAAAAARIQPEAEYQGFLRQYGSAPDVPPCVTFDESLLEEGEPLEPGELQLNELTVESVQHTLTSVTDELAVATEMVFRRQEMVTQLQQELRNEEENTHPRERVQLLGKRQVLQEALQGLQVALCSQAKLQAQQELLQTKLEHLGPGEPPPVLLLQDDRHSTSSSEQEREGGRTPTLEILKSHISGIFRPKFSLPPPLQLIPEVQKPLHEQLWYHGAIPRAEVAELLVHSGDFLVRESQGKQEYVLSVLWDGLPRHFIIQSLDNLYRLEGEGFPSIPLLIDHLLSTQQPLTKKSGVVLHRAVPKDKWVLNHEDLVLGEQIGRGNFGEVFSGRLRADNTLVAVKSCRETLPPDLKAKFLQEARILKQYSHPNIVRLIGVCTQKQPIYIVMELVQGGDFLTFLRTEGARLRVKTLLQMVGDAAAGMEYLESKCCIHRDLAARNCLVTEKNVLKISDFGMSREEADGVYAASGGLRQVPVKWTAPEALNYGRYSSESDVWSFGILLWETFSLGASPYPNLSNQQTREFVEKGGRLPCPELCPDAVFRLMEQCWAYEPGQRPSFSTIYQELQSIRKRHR
Hck, sequence (P08631 whole entry, looked up): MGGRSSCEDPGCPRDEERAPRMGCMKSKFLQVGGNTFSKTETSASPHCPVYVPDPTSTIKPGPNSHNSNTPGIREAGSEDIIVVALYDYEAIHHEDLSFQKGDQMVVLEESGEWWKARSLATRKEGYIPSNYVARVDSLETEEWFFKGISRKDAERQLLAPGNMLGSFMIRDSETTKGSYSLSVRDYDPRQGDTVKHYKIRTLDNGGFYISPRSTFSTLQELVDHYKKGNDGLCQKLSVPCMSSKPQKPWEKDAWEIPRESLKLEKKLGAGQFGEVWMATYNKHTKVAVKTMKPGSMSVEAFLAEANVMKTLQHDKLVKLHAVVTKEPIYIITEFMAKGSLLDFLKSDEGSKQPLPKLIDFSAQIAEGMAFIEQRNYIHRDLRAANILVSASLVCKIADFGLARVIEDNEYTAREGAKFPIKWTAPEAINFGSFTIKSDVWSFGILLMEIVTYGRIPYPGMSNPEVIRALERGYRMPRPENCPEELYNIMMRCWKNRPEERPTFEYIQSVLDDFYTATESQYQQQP

Row | SH2 binding enrichment (c-Src SH2) | SH2 binding enrichment (SHP2-C SH2) | SH2 binding enrichment (Grb2 SH2) | Sequence | phosphorylation enrichment (Fer (mouse)) | phosphorylation enrichment (MERTK) | phosphorylation enrichment (c-Src) | phosphorylation enrichment (c-Abl (mouse)) | phosphorylation enrichment (AncSZ) | phosphorylation enrichment (Jak2) | phosphorylation enrichment (Fyn) | phosphorylation enrichment (FGFR1) | phosphorylation enrichment (FGFR3) | phosphorylation enrichment (Fes) | phosphorylation enrichment (EPHB1) | phosphorylation enrichment (EPHB2) | phosphorylation enrichment (Hck)
1 | 1.22 | 0.545 | 0.839 | SQSAKYDMAED [TTC21B_Y1213_I1208S] | 0.509 | 0.441 | 0.566 | 0.661 | 0.9 | 0.858 | 0.556 | 0.634 | 0.56 | 0.894 | 0.461 | 0.635 | 0.582
2 | 1.08 | 0.557 | 0.774 | SSTAMYSAPGR [PSMB1_Y8] | 0.857 | 1.66 | 0.631 | 6.02 | 0.75 | 0.58 | 0.484 | 0.45 | 0.464 | 0.524 | 0.497 | 0.674 | 2.28
3 | 0.986 | 0.764 | 0.834 | STDDGYIDLQF [TMEM230_Y29] | 0.584 | 0.513 | 0.488 | 0.695 | 1.22 | 1.19 | 0.564 | 1.01 | 1.01 | 1.09 | 0.701 | 0.472 | 0.521
4 | 0.448 | 0.731 | 0.838 | SVICTYSPALN [TP53_Y126_T123I] | 0.651 | 0.438 | 0.58 | 0.97 | 1.36 | 1.03 | 0.546 | 0.61 | 0.779 | 1.44 | 0.59 | 0.673 | 0.523
5 | 0.523 | 0.518 | 0.697 | SVTCTYSPALK [TP53_Y126_N131K] | 0.353 | 0.405 | 0.557 | 0.839 | 0.97 | 0.866 | 0.467 | 0.407 | 0.602 | 1.02 | 0.407 | 0.567 | 0.498
6 | 0.436 | 0.474 | 0.666 | SVTCTYSPALT [TP53_Y126_N131T] | 0.706 | 0.432 | 0.741 | 1.2 | 1.75 | 1.6 | 0.446 | 0.524 | 0.908 | 1.76 | 0.872 | 0.615 | 0.694
7 | 0.415 | 0.747 | 0.852 | SVTGTYSPALN [TP53_Y126_C124G] | 0.434 | 0.444 | 0.549 | 0.717 | 0.661 | 0.835 | 0.584 | 0.394 | 0.593 | 0.769 | 0.419 | 0.424 | 0.621
8 | 1.68 | 0.757 | 0.849 | SVVVHYEPPEV [TP53_Y220_P219H] | 1.86 | 0.71 | 0.485 | 1.72 | 1.15 | 0.758 | 0.484 | 0.525 | 0.647 | 1.02 | 0.699 | 0.616 | 0.537
9 | 0.67 | 0.997 | 1.03 | SVVVPYEPPEG [TP53_Y220_V225G] | 0.445 | 0.559 | 0.446 | 0.633 | 1.02 | 1.01 | 0.525 | 0.533 | 0.714 | 0.929 | 0.685 | 0.492 | 0.503
10 | 0.642 | 1.2 | 0.881 | TDIVAYSGWVQ [SPTBN2_Y477_R480W] | 1.38 | 0.621 | 1.4 | 1.75 | 1.03 | 0.82 | 0.824 | 0.573 | 0.779 | 1.02 | 0.684 | 0.532 | 1.53
11 | 0.401 | 0.604 | 0.787 | TDKLFYIFTPG [SLC27A4_Y243_S247P_YF] | 0.544 | 1.72 | 0.556 | 0.873 | 1.36 | 1.65 | 0.392 | 0.91 | 1.11 | 1.49 | 0.776 | 0.583 | 0.607
12 | 0.383 | 1.12 | 0.684 | TDKLFYIYTPG [SLC27A4_Y243_S247P] | 0.494 | 1.46 | 0.592 | 0.673 | 1.25 | 1.68 | 0.422 | 0.728 | 0.853 | 1.34 | 0.683 | 0.502 | 0.498
13 | 0.547 | 0.897 | 0.878 | TENAGYYFRVS | 0.677 | 0.714 | 0.421 | 1.04 | 1.44 | 3.16 | 0.407 | 0.82 | 1.14 | 2.21 | 0.491 | 1.02 | 0.728
14 | 0.419 | 0.695 | 0.818 | TGEKLYQHKEF [ZNF283_Y627_R629H] | 0.436 | 0.397 | 0.417 | 0.665 | 0.62 | 0.599 | 0.39 | 0.418 | 0.528 | 0.679 | 0.45 | 0.402 | 0.495
15 | 0.497 | 0.803 | 0.855 | TGILLYGLASR [QARS1_Y57] | 1.46 | 1.79 | 0.765 | 0.756 | 0.885 | 0.937 | 0.578 | 0.529 | 0.692 | 1.16 | 0.964 | 1.38 | 1.22

More lines, now with the values behind:

Row | Sequence | SH2 binding enrichment (c-Src SH2) | SH2 binding enrichment (SHP2-C SH2) | SH2 binding enrichment (Grb2 SH2) | phosphorylation enrichment (Fer (mouse)) | phosphorylation enrichment (MERTK) | phosphorylation enrichment (c-Src) | phosphorylation enrichment (c-Abl (mouse)) | phosphorylation enrichment (AncSZ) | phosphorylation enrichment (Jak2) | phosphorylation enrichment (Fyn) | phosphorylation enrichment (FGFR1) | phosphorylation enrichment (FGFR3) | phosphorylation enrichment (Fes) | phosphorylation enrichment (EPHB1) | phosphorylation enrichment (EPHB2) | phosphorylation enrichment (Hck)
16 | SQPASYQRRFL [PPIG_Y320_L324F] | 0.407 | 0.61 | 0.711 | 0.364 | 0.505 | 0.466 | 0.599 | 0.768 | 0.631 | 0.425 | 0.472 | 0.439 | 0.667 | 0.38 | 0.579 | 0.492
17 | SQSPHYFRSGQ [GPATCH8_Y1038_R1043Q] | 0.484 | 0.533 | 0.869 | 0.359 | 0.419 | 0.427 | 0.456 | 0.551 | 0.538 | 0.345 | 0.366 | 0.405 | 0.524 | 0.435 | 0.316 | 0.325
18 | SRWKLYPRMLR [HAO1_Y50] | 0.392 | 0.585 | 0.79 | 0.341 | 0.447 | 0.442 | 0.524 | 0.81 | 0.873 | 0.405 | 0.394 | 0.482 | 0.619 | 0.478 | 0.442 | 0.415
19 | SSEYHYVGGFY [CTSC_Y347] | 1.49 | 4.12 | 0.998 | 2.24 | 6.87 | 3.33 | 14.9 | 3.53 | 2.69 | 3.79 | 13.4 | 11.3 | 0.787 | 9.7 | 12.9 | 4.79
20 | SSLEDYVRETN [GIMAP6_Y176_G171S] | 0.532 | 0.776 | 0.899 | 0.466 | 0.424 | 0.44 | 0.721 | 1.03 | 0.92 | 0.485 | 0.67 | 0.641 | 1.06 | 0.46 | 0.527 | 0.431
21 | SSMIDYNLLEK [MYOC_Y479_P481L] | 0.723 | 0.692 | 0.822 | 0.417 | 0.434 | 0.409 | 0.685 | 0.855 | 0.968 | 0.482 | 0.526 | 0.698 | 0.954 | 0.455 | 0.563 | 0.518
22 | SSPMKYQQNVS [EGFEM1P_Y160] | 0.432 | 0.661 | 0.878 | 0.392 | 0.398 | 0.397 | 0.562 | 0.541 | 0.623 | 0.339 | 0.334 | 0.408 | 0.592 | 0.319 | 0.352 | 0.412
23 | SVETPYGSVTF [NDRG2_Y47] | 0.427 | 0.527 | 0.809 | 5.24 | 0.52 | 4.56 | 0.635 | 0.82 | 0.606 | 5.93 | 0.397 | 0.53 | 0.928 | 0.501 | 0.438 | 2.16
24 | TEALFYTDDTA [ADPRS_Y75_YF] | 0.615 | 0.675 | 0.739 | 0.557 | 0.541 | 0.634 | 0.787 | 1.26 | 1.17 | 0.568 | 0.535 | 0.754 | 1.44 | 0.643 | 0.614 | 0.602
25 | TFHNTYHSQMR [IL1RAPL1_Y615] | 0.682 | 0.597 | 0.872 | 0.466 | 0.402 | 0.5 | 0.612 | 0.631 | 0.849 | 0.471 | 0.458 | 0.489 | 0.567 | 0.33 | 0.411 | 0.434
26 | TFVKSYTIHFS [F5_Y2153_M2148T_YF] | 0.537 | 0.729 | 0.97 | 0.521 | 0.434 | 0.447 | 0.873 | 1.04 | 1.28 | 0.468 | 0.517 | 0.899 | 1.29 | 0.599 | 0.468 | 0.424
27 | TFWKKYCTFWK [CCDC70_Y125_R126C] | 0.517 | 0.594 | 1.1 | 0.364 | 0.402 | 0.395 | 0.752 | 0.966 | 0.844 | 0.381 | 0.438 | 0.619 | 0.794 | 0.381 | 0.425 | 0.38
28 | TGDVQYRSSVR [FREM2_Y2158] | 0.433 | 0.631 | 1.02 | 0.385 | 0.398 | 0.357 | 0.459 | 0.529 | 0.408 | 0.331 | 0.468 | 0.397 | 0.534 | 0.292 | 0.423 | 0.357
29 | TGTQLYGRFGS [ITGA2B_Y384] | 0.418 | 0.569 | 0.779 | 0.389 | 0.732 | 7.68 | 0.404 | 0.619 | 0.608 | 10.6 | 0.451 | 0.513 | 0.654 | 0.351 | 0.498 | 7.54
30 | THPFLYLSLEI [MLH1_Y293] | 0.682 | 0.74 | 1.19 | 0.478 | 0.385 | 0.363 | 0.817 | 1.13 | 1.4 | 0.383 | 0.622 | 0.827 | 1.52 | 0.628 | 0.648 | 0.516
31 | THPFLYLTLEI [MLH1_Y293_S295T] | 0.623 | 0.688 | 0.873 | 0.778 | 0.524 | 0.548 | 1.22 | 1.71 | 1.97 | 0.473 | 0.652 | 1.23 | 2 | 0.889 | 0.889 | 0.556
32 | THPFPYLSLEI [MLH1_Y293_L292P] | 2.05 | 0.752 | 1.04 | 0.39 | 0.414 | 0.554 | 0.715 | 0.909 | 1.09 | 0.295 | 0.657 | 0.677 | 0.978 | 0.502 | 0.474 | 0.475
33 | TIQDAYMHITS [ADCY10_Y318_A313T] | 1.26 | 0.895 | 0.902 | 0.416 | 0.529 | 0.451 | 0.525 | 0.7 | 0.676 | 0.51 | 0.624 | 0.43 | 0.799 | 0.479 | 0.398 | 0.496
